Molecular target: Ape4 (full length) of the Ape4-Nbr1 fusion protein (S. pombe)
Experiment: cryo-EM structure

stoichiometry N | stoichiometry N (Nbr1-ZZ1 molecules per Ape4 dodecamer) | Molecule
12 | – | Ape4 (full length) of the Ape4-Nbr1 fusion protein (enzyme)
– | 12 | Nbr1(53-129) of the Ape4-Nbr1 fusion protein (domain or fragment) PTLRSSSVACNTCLKIIRNDSFHCTKCFDFDVCRDCYAKQAFLHPCPKPHFVLVRSSIPSVASLTCSVNSMSVSPQS

— doi:10.1101/2021.02.07.430097
